# Source: paper PMC2789240, “Comparative structural, kinetic and inhibitor studies of Trypanosoma brucei trypanothione reductase with T. cruzi^☆” (Molecular and Biochemical Parasitology, 2010)
# Molecular target: the molecule itself
# Experiment: SEC; 600 ug TbTryR on Superdex 200 10/300, 25 mM HEPES pH 7.5, 100 mM NaCl; mass from BioRad gel filtration standards; data not shown
protein,measurement,value
"Trypanosoma brucei brucei trypanothione reductase (enzyme, T. b. brucei, UniProt P39051 1-492, looked up, Trypanothione reductase, T. b. brucei strain S427 (MITat 1.4); complete open reading frame amplified from start to stop codon; identical at the amino acid level to genome strain 927 (GeneDB Tb10.406.0520) and to T. b. gambiense TryR; calculated subunit mass 53,156 Da; Flavoprotein: each subunit carries 1 FAD (and 1 NADPH in the crystal); In the crystal model the first residue and the last 2 …) MSKIFDLVVIGAGSGGLEAGWNAATLYKKRVAVIDVQTHHGPPHYAALGGTCVNVGCVPKKLMVTGAQYMDHLRESAGFGWEFDGSSVKANWKKLIAAKNEAVLDINKSYEGMFNDTEGLDFFLGWGSLESKNVVVVRETADPKSAVKERLQADHILLATGSWPQMPAIPGVEHCISSNEAFYLPEPPRRVLTVGGGFISVEFAGIFNAYKPPGGKVTLCYRNNLILRGFDETIREEVTKQLTANGIEIMTNENPAKVSLNTDGSKHVTFESGKTLDVDVVMMAIGRIPRTNDLQLGNVGVKLTPKGGVQVDEFSRTNVPNIYAIGDITDRLMLTPVAINEGAALVDTVFGNKPRKTDHTRVASAVFSIPPIGTCGLIEEVAAKEFEKVAVYMSSFTPLMHNISGSKYKKFVAKIVTNHSDGTVLGVHLLGDGAPEIIQAVGVCLRLNAKISDFYNTIGVHPTSAEELCSMRTPSYYYLKGEKMETLPESSL",stoichiometry N,2
